Our source for the stoichiometry N values is paper PMC11067744.

This assay concerns the target YenB (UniProt B6A880). Put plainly: SEC-MALS.
UniProt B6A880, sequence (B6A880 whole entry): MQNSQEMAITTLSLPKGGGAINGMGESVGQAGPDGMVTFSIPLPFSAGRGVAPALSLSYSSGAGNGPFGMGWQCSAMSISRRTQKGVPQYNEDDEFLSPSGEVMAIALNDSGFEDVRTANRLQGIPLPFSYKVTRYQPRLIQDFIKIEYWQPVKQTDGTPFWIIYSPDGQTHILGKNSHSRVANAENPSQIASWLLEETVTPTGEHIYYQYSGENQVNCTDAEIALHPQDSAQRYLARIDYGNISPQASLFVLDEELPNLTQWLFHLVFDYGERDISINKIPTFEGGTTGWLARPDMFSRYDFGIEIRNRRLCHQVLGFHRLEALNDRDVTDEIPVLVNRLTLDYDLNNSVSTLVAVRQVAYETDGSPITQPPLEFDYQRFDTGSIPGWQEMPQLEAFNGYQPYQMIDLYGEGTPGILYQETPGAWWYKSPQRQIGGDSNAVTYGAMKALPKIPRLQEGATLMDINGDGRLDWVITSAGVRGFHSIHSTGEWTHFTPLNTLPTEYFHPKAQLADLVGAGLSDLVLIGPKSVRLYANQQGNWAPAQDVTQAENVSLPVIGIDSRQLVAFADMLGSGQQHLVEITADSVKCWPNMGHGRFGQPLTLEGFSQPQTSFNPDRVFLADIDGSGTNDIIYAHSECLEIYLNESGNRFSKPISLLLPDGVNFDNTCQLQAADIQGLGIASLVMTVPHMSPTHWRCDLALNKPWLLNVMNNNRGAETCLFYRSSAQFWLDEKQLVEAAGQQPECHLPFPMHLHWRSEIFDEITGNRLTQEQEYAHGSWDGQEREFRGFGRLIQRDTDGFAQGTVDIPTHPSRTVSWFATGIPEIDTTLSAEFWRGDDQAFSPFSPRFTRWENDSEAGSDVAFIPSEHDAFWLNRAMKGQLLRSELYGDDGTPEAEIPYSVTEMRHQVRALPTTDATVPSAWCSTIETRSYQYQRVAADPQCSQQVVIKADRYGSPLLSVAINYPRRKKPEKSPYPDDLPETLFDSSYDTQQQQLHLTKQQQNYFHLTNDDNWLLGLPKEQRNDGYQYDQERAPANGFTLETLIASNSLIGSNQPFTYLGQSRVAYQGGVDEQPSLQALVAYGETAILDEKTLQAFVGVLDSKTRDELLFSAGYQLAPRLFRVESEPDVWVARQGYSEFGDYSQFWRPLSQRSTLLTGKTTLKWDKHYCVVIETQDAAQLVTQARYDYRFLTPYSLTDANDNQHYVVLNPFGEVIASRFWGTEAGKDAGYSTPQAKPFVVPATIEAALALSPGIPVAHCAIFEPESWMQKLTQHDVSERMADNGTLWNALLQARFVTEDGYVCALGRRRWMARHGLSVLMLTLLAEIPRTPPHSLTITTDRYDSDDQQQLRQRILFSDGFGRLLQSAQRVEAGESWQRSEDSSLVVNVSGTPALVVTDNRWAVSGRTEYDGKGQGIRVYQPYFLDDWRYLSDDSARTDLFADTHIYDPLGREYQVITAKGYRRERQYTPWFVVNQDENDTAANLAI

Consider YenC3^NTD (domain or fragment), for which the stoichiometry N turned out to be 1. The substance YenC3^CTD (domain or fragment) showed a stoichiometry N of 1.
